One experiment deals with T1, Monomeric human CD48-mmH (human).
T1 chain: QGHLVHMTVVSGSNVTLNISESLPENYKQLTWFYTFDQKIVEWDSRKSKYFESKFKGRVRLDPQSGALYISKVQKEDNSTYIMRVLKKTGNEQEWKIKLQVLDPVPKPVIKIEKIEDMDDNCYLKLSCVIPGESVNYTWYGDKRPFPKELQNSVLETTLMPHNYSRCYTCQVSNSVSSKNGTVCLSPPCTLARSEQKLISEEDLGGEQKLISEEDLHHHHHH
The experiment in a line: SPR (Biacore), antibody captured by anti-Fc, CD48 in solution, 37 C. In outline:
(§1)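 Antibodies (mouse or human IgG4 Fc) captured on anti-Fc surface; soluble CD48, monomeric (myc-myc-His tag) or dimeric (Fc fusion), injected at several concentrations. ka and kd from kinetic fits; KD=kd/ka, t½=ln2/kd.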
On the technique in general: In SPR one partner is held on a chip, and binding of the other changes the refractive index at the surface.

A further experiment concerns the target T2, Dimeric human CD48-mFc (human).
T2 construct: the whole entry is the construct; also called hCD48-mFc
T2 chain: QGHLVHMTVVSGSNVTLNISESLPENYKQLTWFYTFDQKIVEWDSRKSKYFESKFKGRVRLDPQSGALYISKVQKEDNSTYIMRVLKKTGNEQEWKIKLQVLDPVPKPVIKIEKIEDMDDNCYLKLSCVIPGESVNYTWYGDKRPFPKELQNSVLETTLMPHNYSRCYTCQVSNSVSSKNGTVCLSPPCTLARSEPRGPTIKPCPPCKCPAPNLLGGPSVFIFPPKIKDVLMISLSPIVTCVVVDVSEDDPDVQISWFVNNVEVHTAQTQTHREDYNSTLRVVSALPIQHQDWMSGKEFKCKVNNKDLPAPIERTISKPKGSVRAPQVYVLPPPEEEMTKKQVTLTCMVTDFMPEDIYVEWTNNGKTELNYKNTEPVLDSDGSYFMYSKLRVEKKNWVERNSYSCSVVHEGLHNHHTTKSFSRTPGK
Described as above. The method in brief: as §1

Experiment [1] concerns the target T3, Monomeric monkey CD48-mmH (monkey).
T3 construct: Soluble monkey CD48 with a myc-myc-hexa-histidine C-terminal tag; the whole entry is the construct; also called mfCD48-mmH
T3 chain: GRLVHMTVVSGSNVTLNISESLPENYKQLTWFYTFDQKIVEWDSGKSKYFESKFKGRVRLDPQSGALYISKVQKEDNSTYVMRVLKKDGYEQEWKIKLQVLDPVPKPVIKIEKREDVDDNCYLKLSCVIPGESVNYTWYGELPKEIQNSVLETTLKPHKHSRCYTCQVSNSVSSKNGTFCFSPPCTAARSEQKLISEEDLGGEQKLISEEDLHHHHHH
The experiment is described as above. In outline:
as §1

For experiment [2], the target named is T4, Dimeric monkey CD48-mFc (monkey).
T4 construct: Soluble monkey CD48 with a C-terminal Fc fusion [mFc]; the whole entry is the construct
T4 chain: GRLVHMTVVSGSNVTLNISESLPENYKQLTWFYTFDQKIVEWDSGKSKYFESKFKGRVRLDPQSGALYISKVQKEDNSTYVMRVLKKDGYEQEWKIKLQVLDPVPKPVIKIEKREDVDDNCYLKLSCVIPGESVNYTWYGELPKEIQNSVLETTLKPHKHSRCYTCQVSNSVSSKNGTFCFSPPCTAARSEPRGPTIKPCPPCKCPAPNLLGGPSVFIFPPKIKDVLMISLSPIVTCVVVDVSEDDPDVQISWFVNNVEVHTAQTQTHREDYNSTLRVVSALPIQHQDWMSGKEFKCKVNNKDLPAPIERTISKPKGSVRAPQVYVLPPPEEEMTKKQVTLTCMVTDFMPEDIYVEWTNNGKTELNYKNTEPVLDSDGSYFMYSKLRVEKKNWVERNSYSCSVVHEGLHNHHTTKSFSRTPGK
The experiment is described as above. In outline: as §1

Experiment [3] addresses T3, Monomeric monkey CD48-mmH. The experiment in a line: SPR (Biacore), antibody captured by anti-Fc, CD48 in solution, 25 C. As to the method:
(§2) Measurements were conducted on a T100-2 BIACORE™ instrument (Biacore Life Sciences division of GE Healthcare, Piscataway, N.J.). Antibodies (either with mouse Fc [designated “H2M” or “H3M”] or human IgG4 Fc [designated “H4H”]) were captured through an anti-Fc chip surface, and CD48 was flowed over the surface either in a monomeric (soluble CD48 expressed with a myc-myc-hexa-histidine C-terminal tag [mmH]) or dimeric (soluble CD48 expressed with a C-terminal Fc fusion [mFc]) format.
(§3) The soluble CD48 was applied to the flow cell in separate injections at different concentrations, and kinetic association (kₐ) and dissociation (kd) rate constants were determined by fits to the kinetic binding data using Biacore software. Binding dissociation equilibrium constants and dissociation half-times were calculated from the kinetic rate constants as: KD=kd/kₐ; t_{1/2}=(ln 2/kd) (units: ka=M⁻¹*s⁻¹; kd=s⁻¹; KD=M; T½=min) (Tables 3-6).

Experiment [4] has as its target T4, Dimeric monkey CD48-mFc. The experiment is described as above. The method, then:
as §2, §3

Results on five molecules are retold here after patent US20130230533A1 (Regeneron, published 2013).

In general, Kd refers to the concentration at which binding is half-saturated. By koff is commonly meant the rate constant with which the complex falls apart. Broadly, the kon is the rate constant with which the complex forms.

Where a chain is given by its changes, count along the chain named. Numbers in names are those of the source.

B1: H4H1775P (antibody, human IgG4, V domains shown)
VH: QVQLVESGGGVVQPGRSLRLSCAASGFTFSNYGMHWVRQAPGKGLEWVAVIWYDESGKHYADSVKGRFTISRDNSQNTLYLQMTSLRAEDTAVYYCARDRWTYSHYFEYWGQGTLVTVSS
VL: DIQMTQSPSSVSASVGDRVTITCRASQDISSWVAWYQQKPGKAPKLLIYAASSLQSGVPSRFSGSGSGTDFTLTISSLQPEDFATYYCQQANSFPRTFGQGTKVEIK
notes: Human IgG4 Fc (H4H)
For the molecule B1, the Kd with Monomeric human CD48-mmH turned out to be 0.536 nM; in the experiment with Dimeric human CD48-mFc it was 0.0434 nM; in experiment [1], 0.498 nM; with Dimeric monkey CD48-mFc [2], 0.0593 nM; in experiment [3], 0.14 nM; in the experiment with Dimeric monkey CD48-mFc [4], 0.0135 nM. Besides, the T½ came out at 122 min with Monomeric human CD48-mmH; 509 min with Dimeric human CD48-mFc; 90 min in experiment [1]; 291 min in the experiment with Dimeric monkey CD48-mFc [2]; 284 min in experiment [3]; 1750 min with Dimeric monkey CD48-mFc [4]. Further, the koff is 9.48e-05 s⁻¹ in the experiment with Monomeric human CD48-mmH; 2.27e-05 s⁻¹ in the experiment with Dimeric human CD48-mFc; 0.000129 s⁻¹ in experiment [1]; 3.97e-05 s⁻¹ with Dimeric monkey CD48-mFc [2]; 4.07e-05 s⁻¹ in experiment [3]; 6.6e-06 s⁻¹ in the experiment with Dimeric monkey CD48-mFc [4]. Besides, the kon in the experiment with Monomeric human CD48-mmH amounted to 177000 M⁻¹ s⁻¹; with Dimeric human CD48-mFc, 522000 M⁻¹ s⁻¹; in experiment [1], 260000 M⁻¹ s⁻¹; in the experiment with Dimeric monkey CD48-mFc [2], 669000 M⁻¹ s⁻¹; in experiment [3], 291000 M⁻¹ s⁻¹; with Dimeric monkey CD48-mFc [4], 488000 M⁻¹ s⁻¹.

B2: H4H1778P (antibody, human IgG4, V domains shown)
VH: B1 VH with G57S, H59Y, A61T
VL: B1 VL with D28G
notes: Human IgG4 Fc (H4H)
Turning to B2, the Kd is 0.837 nM with Monomeric human CD48-mmH; 0.0746 nM in the experiment with Dimeric human CD48-mFc; 1.34 nM in experiment [1]; 0.0686 nM with Dimeric monkey CD48-mFc [2]; 0.325 nM in experiment [3]; 0.046 nM in the experiment with Dimeric monkey CD48-mFc [4]. For the same molecule, the T½ with Monomeric human CD48-mmH turned out to be 102 min; in the experiment with Dimeric human CD48-mFc, 327 min; in experiment [1], 46 min; with Dimeric monkey CD48-mFc [2], 321 min; in experiment [3], 129 min; with Dimeric monkey CD48-mFc [4], 654 min. The off-rate constant (koff) with Monomeric human CD48-mmH worked out at 0.000113 s⁻¹; with Dimeric human CD48-mFc, 3.53e-05 s⁻¹; in experiment [1] it was 0.000253 s⁻¹; in the experiment with Dimeric monkey CD48-mFc [2] it was 3.6e-05 s⁻¹; in experiment [3], 8.98e-05 s⁻¹; with Dimeric monkey CD48-mFc [4], 1.77e-05 s⁻¹. The kon in the experiment with Monomeric human CD48-mmH is 135000 M⁻¹ s⁻¹; with Dimeric human CD48-mFc, 473000 M⁻¹ s⁻¹; in experiment [1] it was 189000 M⁻¹ s⁻¹; with Dimeric monkey CD48-mFc [2], 525000 M⁻¹ s⁻¹; in experiment [3], 276000 M⁻¹ s⁻¹; with Dimeric monkey CD48-mFc [4], 384000 M⁻¹ s⁻¹.

B3: H4H1781P (antibody, human IgG4, V domains shown)
VH: B1 VH with E55D, G57N, H59N, Q76K, T84N, A88V, Y106F
VL: B1 VL with D28G, V33L, K45N, S63G, T72S, S77G
notes: Human IgG4 Fc (H4H)
B3: the Kd in the experiment with Monomeric human CD48-mmH is 0.448 nM; in the experiment with Dimeric human CD48-mFc, 0.0603 nM; in experiment [1] it was 0.875 nM; with Dimeric monkey CD48-mFc [2], 0.0755 nM; in experiment [3], 0.262 nM; in the experiment with Dimeric monkey CD48-mFc [4], 0.0356 nM. The T½ in the experiment with Monomeric human CD48-mmH is 114 min; with Dimeric human CD48-mFc it was 236 min; in experiment [1] it was 38 min; with Dimeric monkey CD48-mFc [2] it was 175 min; in experiment [3] it was 148 min; with Dimeric monkey CD48-mFc [4], 542 min. The koff with Monomeric human CD48-mmH was determined as 0.000101 s⁻¹; with Dimeric human CD48-mFc it was 4.89e-05 s⁻¹; in experiment [1], 0.000307 s⁻¹; with Dimeric monkey CD48-mFc [2] it was 6.61e-05 s⁻¹; in experiment [3], 7.8e-05 s⁻¹; with Dimeric monkey CD48-mFc [4], 2.13e-05 s⁻¹. For the same molecule, the kon with Monomeric human CD48-mmH worked out at 226000 M⁻¹ s⁻¹; with Dimeric human CD48-mFc, 812000 M⁻¹ s⁻¹; in experiment [1] it was 350000 M⁻¹ s⁻¹; with Dimeric monkey CD48-mFc [2], 875000 M⁻¹ s⁻¹; in experiment [3], 298000 M⁻¹ s⁻¹; in the experiment with Dimeric monkey CD48-mFc [4], 599000 M⁻¹ s⁻¹.

B4: H4H1779P (antibody, human IgG4, V domains shown)
VH: B1 VH with G57S
VL: B1 VL
notes: Human IgG4 Fc (H4H)
For the molecule B4, the equilibrium dissociation constant (Kd) in the experiment with Monomeric human CD48-mmH came to 0.495 nM; with Dimeric human CD48-mFc, 0.0594 nM; in experiment [1], 1.04 nM; with Dimeric monkey CD48-mFc [2] it was 0.0829 nM; in experiment [3], 0.375 nM; in the experiment with Dimeric monkey CD48-mFc [4], 0.0606 nM. The T½ with Monomeric human CD48-mmH was 113 min; with Dimeric human CD48-mFc, 252 min; in experiment [1] it was 40 min; with Dimeric monkey CD48-mFc [2] it was 193 min; in experiment [3], 102 min; with Dimeric monkey CD48-mFc [4], 364 min. Besides, the koff with Monomeric human CD48-mmH is 0.000102 s⁻¹; in the experiment with Dimeric human CD48-mFc, 4.59e-05 s⁻¹; in experiment [1], 0.000289 s⁻¹; in the experiment with Dimeric monkey CD48-mFc [2], 5.98e-05 s⁻¹; in experiment [3], 0.000113 s⁻¹; with Dimeric monkey CD48-mFc [4], 3.17e-05 s⁻¹. For the same molecule, the kon in the experiment with Monomeric human CD48-mmH stood at 207000 M⁻¹ s⁻¹; in the experiment with Dimeric human CD48-mFc it was 772000 M⁻¹ s⁻¹; in experiment [1] it was 277000 M⁻¹ s⁻¹; in the experiment with Dimeric monkey CD48-mFc [2] it was 721000 M⁻¹ s⁻¹; in experiment [3] it was 301000 M⁻¹ s⁻¹; with Dimeric monkey CD48-mFc [4] it was 522000 M⁻¹ s⁻¹.

B5: H4H1789Pa (antibody, V domains shown)
VH: EVQLLESGGGLVHPGGSLRLSCAASGFTFGGYAMSWVRQAPGKGLEWVSLISGSGGSTYYADSVKGRFTIFRDNSKNTLYLQMISLRAEDSAVYYCAKYSNYDYFDPWGQGTLVTVSS
VL: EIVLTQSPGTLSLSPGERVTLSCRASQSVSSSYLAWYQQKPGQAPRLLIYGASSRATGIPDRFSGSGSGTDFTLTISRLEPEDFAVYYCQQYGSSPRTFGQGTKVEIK
notes: Human IgG4 Fc (H4H)
Turning to B5, the Kd with Monomeric human CD48-mmH came out at 8.97 nM; with Dimeric human CD48-mFc it was 0.161 nM; in experiment [1] it was 4.71 nM; with Dimeric monkey CD48-mFc [2], 0.776 nM; in experiment [3], 3.31 nM; with Dimeric monkey CD48-mFc [4] it was 0.423 nM. In addition, the T½ with Monomeric human CD48-mmH is 6 min; in the experiment with Dimeric human CD48-mFc, 324 min; in experiment [1], 6 min; with Dimeric monkey CD48-mFc [2] it was 15 min; in experiment [3] it was 8 min; with Dimeric monkey CD48-mFc [4] it was 42 min. The koff with Monomeric human CD48-mmH was 0.00179 s⁻¹; with Dimeric human CD48-mFc, 3.57e-05 s⁻¹; in experiment [1], 0.00206 s⁻¹; in the experiment with Dimeric monkey CD48-mFc [2], 0.000768 s⁻¹; in experiment [3] it was 0.00138 s⁻¹; with Dimeric monkey CD48-mFc [4], 0.000276 s⁻¹. The kon was determined as 199000 M⁻¹ s⁻¹ with Monomeric human CD48-mmH; 221000 M⁻¹ s⁻¹ with Dimeric human CD48-mFc; 437000 M⁻¹ s⁻¹ in experiment [1]; 990000 M⁻¹ s⁻¹ with Dimeric monkey CD48-mFc [2]; 416000 M⁻¹ s⁻¹ in experiment [3]; 651000 M⁻¹ s⁻¹ with Dimeric monkey CD48-mFc [4].
